Assay results published in article PMC5138847 (Scientific Reports, 2016).
Where a chain is given by its changes, count along the chain named. Names may count otherwise. Blank lines part the entries; values can stand above or below the molecule they belong to.

Columns and labels:
[1] = target: T1, DrUox (zebrafish urate oxidase, uricase) (Danio rerio, UniProt Q6DG85); assay: UV absorbance, global fit to competitive inhibition; assay type: biochemical; conditions: read-out: Xanthine / Ki
T1 construct: gene uox; full length, 298 aa; N-terminal 6xHis tag (pET28b) for wt and F216S kinetics, untagged for crystals; E. coli BL21-CodonPlus(DE3); homotetramer
T1 sequence (Q6DG85 1-298): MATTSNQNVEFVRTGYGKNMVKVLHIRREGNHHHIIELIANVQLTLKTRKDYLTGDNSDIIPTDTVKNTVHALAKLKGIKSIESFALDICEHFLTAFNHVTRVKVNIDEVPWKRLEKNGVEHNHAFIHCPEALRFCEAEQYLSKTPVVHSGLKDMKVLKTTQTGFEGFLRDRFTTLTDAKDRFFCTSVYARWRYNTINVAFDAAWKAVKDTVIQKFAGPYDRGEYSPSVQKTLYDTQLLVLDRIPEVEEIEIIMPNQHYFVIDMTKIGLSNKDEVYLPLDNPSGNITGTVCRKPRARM

[2] = target: T2, DrUox (zebrafish urate oxidase, uricase) (Danio rerio, UniProt Q6DG85, F216S); assay: UV absorbance at […] nm, global fit to competitive inhibition; assay type: biochemical; conditions: read-out: Xanthine / Ki
T2 construct: gene uox; full length, 298 aa; N-terminal 6xHis tag (pET28b) for wt and F216S kinetics, untagged for crystals; E. coli BL21-CodonPlus(DE3); homotetramer
T2 sequence (Q6DG85 1-298 F216S): T1 sequence (Q6DG85 1-298) with F216S

purified protein = substrate: O=c1[nH]c(=O)c2[nH]c(=O)[nH]c2[nH]1; assay: purified protein; conditions: 100 mM potassium phosphate pH 7.6, 25 °C, equimolar DrUrah
[3] = target: the molecule itself; assay: SEC; HPLC-SEC on a Superdex 200 increase 3.2/300 column, native conditions, about 13 ug of each sample, elution monitored at 280 nm, calibrated with standards
[4] = target: the molecule itself; assay: crystal structure; untagged DrUox 10 mg/ml (10 mM Tris-HCl pH 7.6, 1 mM EDTA), crystallised in 0.1 M Tris-HCl pH 8.5, 8% PEG 8000; space group P21, two tetramers in the asymmetric unit; 2.8 A

Ki [1]: 4.3 ± 0.27 µM
Ki [2]: 59.2 ± 8.2 µM
Molecule: O=c1[nH]c(=O)c2[nH]cnc2[nH]1 [xanthine]

B1: DrUox (zebrafish urate oxidase, uricase) (Danio rerio) (protein)
chain: T1 sequence (Q6DG85 1-298)
Km (purified protein): 11 ± 1 µM
kcat (purified protein): 3.95 s⁻¹
kcat/Km (purified protein): 360000 M⁻¹ s⁻¹

B2: zebrafish urate oxidase F216S mutant, His-tagged (enzyme, zebrafish (Danio rerio), UniProt Q6DG85 1-298, looked up)
chain: T1 sequence (Q6DG85 1-298) with F216S
notes: also called F216S DrUox; mutant DrUox; source: E. coli BL21-CodonPlus(DE3), purified (Talon cobalt resin)
Km (purified protein): 284 ± 31 µM
kcat (purified protein): 3.99 s⁻¹
kcat/Km (purified protein): 14000 M⁻¹ s⁻¹
stoichiometry N [3]: 4

B3: zebrafish (Danio rerio) urate oxidase, untagged wild type (enzyme, UniProt Q6DG85 1-298, looked up)
chain: T1 sequence (Q6DG85 1-298)
notes: cDNA IMAGE:100059545; In the crystal, electron density runs from Gly8 to Pro294; Cys129 forms an inter-subunit disulfide (chains A-C and B-D); also called DrUox; Uox; source: E. coli BL21-CodonPlus(DE3), purified (xanthine-agarose column, eluted with urate)
stoichiometry N [4]: 4

B4: zebrafish urate oxidase, His-tagged wild type (enzyme, zebrafish (Danio rerio), UniProt Q6DG85 1-298, looked up)
chain: T1 sequence (Q6DG85 1-298)
notes: also called wt DrUox; His-tagged wt; source: E. coli BL21-CodonPlus(DE3), purified (Talon cobalt resin)
stoichiometry N [3]: 4
